# Source: patent US20210070885A1 (published 2021)
# Changes are numbered by the printed parent chain.
# B1: Tmab-CLC5 (antibody, V domains shown)
# VH: not shown
# VL: DIQMTQSPSSLSASVGDRVTITCKASQDVSIGVAWYQQKPGKAPKLLIYSASYRYTGVPSRFSGSGSGTDFTLTISSLQPEDFATYYCQQYYIYPYTFGQGTKVEIKR
# B2: Tmab-CLC6 (antibody, V domains shown)
# VH: not shown
# VL: B1 VL with Y94T
# B3: Pmab-CLC2 (antibody, V domains shown)
# VH: EVQLVESGGGLVQPGGSLRLSCAASGFTFTDYTMDWVRQAPGKGLEWVADVNPNSGGSIYNQRFKGRFTLSVDRSKNTLYLQMNSLRAEDTAVYYCARNLGPSFYFDYWGQGTLVTVSS
# VL: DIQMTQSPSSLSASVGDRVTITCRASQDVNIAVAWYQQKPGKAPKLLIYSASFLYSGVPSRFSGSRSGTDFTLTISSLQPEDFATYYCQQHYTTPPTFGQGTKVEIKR
# B4: Pmab-CLC6 (antibody, V domains shown)
# VH: B3 VH
# VL: B1 VL with Y94T
# B5: Pmab-CLC3 (antibody, V domains shown)
# VH: B3 VH
# VL: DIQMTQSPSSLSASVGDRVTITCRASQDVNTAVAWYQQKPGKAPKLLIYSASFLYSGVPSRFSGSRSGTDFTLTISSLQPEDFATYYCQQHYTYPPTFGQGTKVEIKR
# B6: Pmab-CLC4 (antibody, V domains shown)
# VH: B3 VH
# VL: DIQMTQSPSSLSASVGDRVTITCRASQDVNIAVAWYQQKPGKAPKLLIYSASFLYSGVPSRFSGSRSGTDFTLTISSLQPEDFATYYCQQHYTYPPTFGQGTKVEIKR
# Molecular target: HER2m1-Fc (UniProt P04626 23-652)
# Assay: ELISA
row,Binder,EC50
1,B1,0.616 µg/mL
2,B2,1.1 µg/mL

# Molecular target: HER2m2-Fc (UniProt P04626 23-652)
# Assay: ELISA
row,Binder,EC50
1,B3,0.598 µg/mL
2,B4,0.393 µg/mL
3,B5,0.49 µg/mL
4,B6,0.479 µg/mL
